Experimental findings from article PMC10153752, “Exo1 protects DNA nicks from ligation to promote crossover formation during meiosis” are described below.

In this data set the target is T1, exo1-D173A (Saccharomyces cerevisiae, UniProt P39875 1-702, D173A).
T1 sequence: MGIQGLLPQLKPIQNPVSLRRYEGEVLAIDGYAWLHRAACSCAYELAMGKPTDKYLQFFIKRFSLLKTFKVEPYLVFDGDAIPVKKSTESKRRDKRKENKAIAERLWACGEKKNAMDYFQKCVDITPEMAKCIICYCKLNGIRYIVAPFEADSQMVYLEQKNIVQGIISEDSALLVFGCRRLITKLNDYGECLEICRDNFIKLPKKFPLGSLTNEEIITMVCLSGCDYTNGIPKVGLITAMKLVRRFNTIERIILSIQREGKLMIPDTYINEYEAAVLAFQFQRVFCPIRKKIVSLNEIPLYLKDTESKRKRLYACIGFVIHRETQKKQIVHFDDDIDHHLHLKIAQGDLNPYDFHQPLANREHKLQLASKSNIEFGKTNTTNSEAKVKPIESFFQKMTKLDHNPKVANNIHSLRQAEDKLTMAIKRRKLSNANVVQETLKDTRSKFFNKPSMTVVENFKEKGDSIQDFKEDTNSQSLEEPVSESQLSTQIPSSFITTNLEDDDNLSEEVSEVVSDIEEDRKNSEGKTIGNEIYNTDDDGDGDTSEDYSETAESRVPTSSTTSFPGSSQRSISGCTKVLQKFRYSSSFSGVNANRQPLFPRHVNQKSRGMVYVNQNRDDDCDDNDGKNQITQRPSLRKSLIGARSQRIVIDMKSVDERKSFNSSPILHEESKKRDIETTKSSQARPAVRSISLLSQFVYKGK
Description: filter binding; no added metal, 0.01 mM EDTA; 15 nM DNA, 35 mM NaCl, 20 mM Tris pH 7.5, 0.04 mg/ml BSA, 0.01 mM EDTA, 0.1 mM DTT, 60 ul, 10 min at 30 C; KOH-treated nitrocellulose filter binding. The conditions noted are these: protein: recombinant; tags: FLAG; label: 5'-32P on AO3144 (8% labeled); nicked duplex with 19 nt 5' flap (AO3145 1-19); last 3 nt of AO3145 mismatch the 5' end of AO3144.

B1: 19 nt 5' flap substrate (AO3145 + AO3940 annealed to AO3144) (dsDNA)
DNA 1: ACAGCTACCGAATTCTGACTTGCTAGGACATCTTTGCCCACGTTGACCC
DNA 2: TCGATAGTCTCTAGATAGCATGTCCTAGCAAGTCAGAATTCGGTAGCGTG
DNA 3: GGGTCAACGTGGGCAAAG
For the molecule B1, the binding result was “binds”.
